Experimental data published in PMC3488191, “Functional identification of the DNA packaging terminase from Pseudomonas aeruginosa phage PaP3”.

Key:
[1] = molecular target: T1, p01 small terminase subunit (Pseudomonas aeruginosa phage PaP3) (UniProt Q8H9R5); test: EMSA; conditions: 50 mM Tris-HCl pH 8.0, 50 mM NaCl, 10 mM MgCl2, 5% glycerol, 1.5 uM DNA, 37 C 30 min, stopped with 20 mM EDTA; 5% native PAGE in 0.5x TBE
T1 sequence: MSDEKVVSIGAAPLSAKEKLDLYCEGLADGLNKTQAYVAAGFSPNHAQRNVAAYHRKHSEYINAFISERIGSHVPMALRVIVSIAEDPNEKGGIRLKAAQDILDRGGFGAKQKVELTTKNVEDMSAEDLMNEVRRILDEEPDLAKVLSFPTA

[2] = molecular target: T2, p03 large terminase subunit (Pseudomonas aeruginosa phage PaP3, UniProt Q8H9R7 1-482); test: EMSA; 10 mM Mg2+; 0.4 uM p03; 50 mM Tris-HCl pH 8.0, 50 mM NaCl, 10 mM MgCl2, 5% glycerol, 1.5 uM DNA, 37 C 30 min, stopped with 20 mM EDTA; 5% native PAGE in 0.5x TBE; conditions: protein: recombinant; tags: C-terminal His6 (pET-22b); label: 5'-biotin; blunt
T2 sequence: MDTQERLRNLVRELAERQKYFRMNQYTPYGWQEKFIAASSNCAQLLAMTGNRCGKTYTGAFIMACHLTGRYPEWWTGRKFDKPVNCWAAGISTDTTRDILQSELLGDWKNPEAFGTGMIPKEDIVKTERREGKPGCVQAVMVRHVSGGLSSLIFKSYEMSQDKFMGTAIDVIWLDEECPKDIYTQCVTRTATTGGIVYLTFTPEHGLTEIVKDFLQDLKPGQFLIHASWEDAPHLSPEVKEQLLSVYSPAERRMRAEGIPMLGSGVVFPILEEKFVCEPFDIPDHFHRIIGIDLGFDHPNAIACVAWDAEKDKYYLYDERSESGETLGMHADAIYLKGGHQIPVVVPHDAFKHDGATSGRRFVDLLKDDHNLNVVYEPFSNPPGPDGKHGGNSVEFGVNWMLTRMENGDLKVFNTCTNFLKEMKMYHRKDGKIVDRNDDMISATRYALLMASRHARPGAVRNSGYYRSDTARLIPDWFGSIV

[3] = molecular target: T2, p03 large terminase subunit; test: EMSA; 10 mM Mg2+; 50 mM Tris-HCl pH 8.0, 50 mM NaCl, 10 mM MgCl2, 5% glycerol, 1.5 uM DNA, 37 C 30 min, stopped with 20 mM EDTA; 5% native PAGE in 0.5x TBE; conditions: protein: recombinant; tags: C-terminal His6 (pET-22b); label: 5'-biotin; blunt

ATACTCCCCGTCGCGCTTGAACCACGGGGTCTGTCAATTGATTGCGCTGGGACAGGCTACCAGTCGGGCCTTCTATGGTACAAGGCCAGGACCTACGCTCTTTCGGAGTGTGCGTTATTCCCTCAGCTTTCGGGTTTCTCCCTTGTTCAGTCCAAGGACCGTCGAAGGTACACTTTCCCCAGGTGGCCGTCACCTGATGGGTGCCCATGTTAGAGCCGTGGGCTTGCCTTGTCAACCCT (double strand) [cos239dn]
binding [1]: no binding

B1: 20-bp cos end sequence (dsDNA)
DNA 1: GCCGGCCCCTTTCCGCGTTA
DNA 2: TAACGCGGAAAGGGGCCGGC
binding result [2]: binds

B2: 24-bp non-cos DNA (dsDNA)
DNA 1: GCACTGCAGTAACTTGTCAGTCAT
DNA 2: ATGACTGACAAGTTACTGCAGTGC
binding result [3]: no binding
